Results taken from the supplement of paper PMC9112550, “Optimization of the antimicrobial peptide Bac7 by deep mutational scanning” (BMC Biology, 2022).

Tested on: Escherichia coli TOP10
Assay: shrunken log2 fold change of peptide-encoding DNA abundance (4.5 h post-induction vs induction); higher = less antimicrobial activity (less host growth inhibition)
Settings: time post-induction: 4.5 h; library: site-saturation at positions 5, 18, 19, 20
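Also: peptides expressed intracellularly from a pBAD plasmid library in pooled LB shake-flask culture, induced with 0.3% L-arabinose, DNA abundance read by NGS, three biological replicates, DESeq2 with apeglm shrinkage.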

| Sequence | shrunken log2 fold change |
| --- | --- |
| RRIRDRPPRLPRPRPRPLIWPRP | 0.176 |
| RRIRWRPPRLPRPRPRPHIQPRP | -0.749 |
| RRIRVRPPRLPRPRPRPTFKPRP | -0.152 |
| RRIRFRPPRLPRPRPRPIYDPRP | -0.626 |
| RRIRPRPPRLPRPRPRPNWEPRP | 0.0541 |
| RRIRPRPPRLPRPRPRPCSMPRP | -0.564 |
| RRIRTRPPRLPRPRPRPHSRPRP | 0.0646 |
| RRIRKRPPRLPRPRPRPNVWPRP | 0.258 |
| RRIRARPPRLPRPRPRPCVGPRP | 2.43 |
| RRIRWRPPRLPRPRPRPIGLPRP | 0.0952 |
| RRIRLRPPRLPRPRPRPMPIPRP | 0.301 |
| RRIRPRPPRLPRPRPRPFSAPRP | 0.0672 |
| RRIRCRPPRLPRPRPRPVHPPRP | -0.375 |
| RRIRLRPPRLPRPRPRPCTHPRP | -0.0381 |
| RRIRKRPPRLPRPRPRPVIGPRP | 0.233 |
| RRIRHRPPRLPRPRPRPVMYPRP | -1.29 |
| RRIRMRPPRLPRPRPRPPAAPRP | 2.78 |
| RRIRERPPRLPRPRPRPPANPRP | 0.0983 |
| RRIRQRPPRLPRPRPRPLCHPRP | -0.142 |
| RRIRERPPRLPRPRPRPVALPRP | -0.377 |
| RRIRFRPPRLPRPRPRPTDVPRP | 0.0385 |

| Sequence | shrunken log2 fold change |
| --- | --- |
| RRIRGRPPRLPRPRPRPFPHPRP | 0.155 |
| RRIRLRPPRLPRPRPRPEFSPRP | -0.013 |
| RRIRWRPPRLPRPRPRPVWYPRP | -0.18 |
| RRIRHRPPRLPRPRPRPFKWPRP | -0.0376 |
| RRIRSRPPRLPRPRPRPGVKPRP | 0.235 |
| RRIRNRPPRLPRPRPRPWVDPRP | -0.00748 |
| RRIRPRPPRLPRPRPRPWGFPRP | -0.129 |
| RRIRKRPPRLPRPRPRPIQWPRP | -0.00149 |
| RRIRPRPPRLPRPRPRPVMFPRP | 0.885 |
| RRIRCRPPRLPRPRPRPQVEPRP | 0.0599 |
| RRIRMRPPRLPRPRPRPFWKPRP | 0.072 |
| RRIRCRPPRLPRPRPRPFDEPRP | -0.0888 |
| RRIRWRPPRLPRPRPRPEAAPRP | 1.76 |
| RRIRTRPPRLPRPRPRPFWCPRP | -0.111 |
| RRIRFRPPRLPRPRPRPYLEPRP | -0.0738 |
| RRIRMRPPRLPRPRPRPTSMPRP | 0.0931 |
| RRIRNRPPRLPRPRPRPTGVPRP | 0.147 |
| RRIRQRPPRLPRPRPRPNMSPRP | -0.313 |
| RRIRRRPPRLPRPRPRPRQRPRP | 0.636 |
| RRIRQRPPRLPRPRPRPYNRPRP | -0.0882 |
| RRIRTRPPRLPRPRPRPQDHPRP | -0.805 |

| Sequence | shrunken log2 fold change |
| --- | --- |
| RRIRNRPPRLPRPRPRPCDFPRP | -0.529 |
| RRIRVRPPRLPRPRPRPYLDPRP | 0.0545 |
| RRIRRRPPRLPRPRPRPDACPRP | 0.00716 |
| RRIRSRPPRLPRPRPRPPEAPRP | 0.854 |
| RRIRRRPPRLPRPRPRPMCIPRP | -0.182 |
| RRIRARPPRLPRPRPRPKDEPRP | 0.687 |
| RRIRERPPRLPRPRPRPKGWPRP | 0.493 |
| RRIRARPPRLPRPRPRPNGCPRP | -0.0858 |
| RRIRNRPPRLPRPRPRPEKQPRP | 0.0721 |
| RRIRPRPPRLPRPRPRPPQPPRP | 0.441 |
| RRIRWRPPRLPRPRPRPAMGPRP | 0.161 |
| RRIRTRPPRLPRPRPRPWVAPRP | -0.0456 |
| RRIRARPPRLPRPRPRPPTDPRP | 0.839 |
| RRIRERPPRLPRPRPRPWDRPRP | -0.146 |
| RRIRPRPPRLPRPRPRPTNHPRP | -0.134 |
| RRIRIRPPRLPRPRPRPVPVPRP | 0.0789 |
| RRIRGRPPRLPRPRPRPPDMPRP | 0.879 |
| RRIRQRPPRLPRPRPRPGPGPRP | 0.507 |
| RRIRVRPPRLPRPRPRPCPGPRP | 0.00413 |
| RRIRPRPPRLPRPRPRPWHPPRP | -0.227 |
| RRIRMRPPRLPRPRPRPTAIPRP | 0.072 |
